± gives the standard deviation of the averaged measurements.
Legend:
MCF7 = assay: percentage of EdU-negative (G0-arrested) nuclei per well, 72 h; higher = more G0 arrest; conditions: reference: sequence is the full UniProt precursor, the tested protein was the secreted form or ectodomain
hTERT-HMEC = assay: as above; conditions: reference: sequence is the full UniProt precursor, the tested protein was the secreted form or ectodomain
[1] = protein concentration 0.0105 µM
[2] = protein concentration 0.00828571 µM
[3] = protein concentration 0.0828571 µM
[4] = protein concentration 0.0328571 µM
[5] = protein concentration 0.328571 µM
[6] = protein concentration 0.0225 µM
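Further: secreted proteins added to cultured cells, EdU pulse at the end, nuclei found by Hoechst imaging, EdU status from nuclear versus surrounding ring intensity ratio, PBS as neutral control.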

Sequence	percentage of EdU-negative (MCF7; [6]) [%]	percentage of EdU-negative (MCF7; protein concentration 0.225 µM) [%]	percentage of EdU-negative (hTERT-HMEC; [6]) [%]	percentage of EdU-negative (hTERT-HMEC; protein concentration 0.225 µM) [%]	other results
MSLWKKTVYRSLCLALALLVAVTVFQRSLTPGQFLQEPPPPTLEPQKAQKPNGQLVNPNNFWKNPKDVAAPTPMASQGPQAWDVTTTNCSANINLTHQPWFQVLEPQFRQFLFYRHCRYFPMLLNHPEKCRGDVYLLVVVKSVITQHDRREAIRQTWGRERQSAGGGRGAVRTLFLLGTASKQEERTHYQQLLAYEDRLYGDILQWGFLDTFFNLTLKEIHFLKWLDIYCPHVPFIFKGDDDVFVNPTNLLEFLADRQPQENLFVGDVLQHARPIRRKDNKYYIPGALYGKASYPPYAGGGGFLMAGSLARRLHHACDTLELYPIDDVFLGMCLEVLGVQPTAHEGFKTFGISRNRNSRMNKEPCFFRAMLVVHKLLPPELLAMWGLVHSNLTCSRKLQVL [Q8NFL0]					percentage of EdU-negative (MCF7; [1]): 25.6 ± 1%; percentage of EdU-negative (MCF7; protein concentration 0.105 µM): 27.97 ± 0.1%; percentage of EdU-negative (hTERT-HMEC; [1]): 4.88 ± 0.47%; percentage of EdU-negative (hTERT-HMEC; protein concentration 0.105 µM): 6.5 ± 1.4%
MSLWQPLVLVLLVLGCCFAAPRQRQSTLVLFPGDLRTNLTDRQLAEEYLYRYGYTRVAEMRGESKSLGPALLLLQKQLSLPETGELDSATLKAMRTPRCGVPDLGRFQTFEGDLKWHHHNITYWIQNYSEDLPRAVIDDAFARAFALWSAVTPLTFTRVYSRDADIVIQFGVAEHGDGYPFDGKDGLLAHAFPPGPGIQGDAHFDDDELWSLGKGVVVPTRFGNADGAACHFPFIFEGRSYSACTTDGRSDGLPWCSTTANYDTDDRFGFCPSERLYTQDGNADGKPCQFPFIFQGQSYSACTTDGRSDGYRWCATTANYDRDKLFGFCPTRADSTVMGGNSAGELCVFPFTFLGKEYSTCTSEGRGDGRLWCATTSNFDSDKKWGFCPDQGYSLFLVAAHEFGHALGLDHSSVPEALMYPMYRFTEGPPLHKDDVNGIRHLYGPRPEPEPRPPTTTTPQPTAPPTVCPTGPPTVHPSERPTAGPTGPPSAGPTGPPTAGPSTATTVPLSPVDDACNVNIFDAIAEIGNQLYLFKDGKYWRFSEGRGSRPQGPFLIADKWPALPRKLDSVFEERLSKKLFFFSGRQVWVYTGASVLGPRRLDKLGLGADVAQVTGALRSGRGKMLLFSGRRLWRFDVKAQMVDPRSASEVDRMFPGVPLDTHDVFQYREKAYFCQDRFYWRVSSRSELNQVDQVGYVTYDILQCPED					percentage of EdU-negative (MCF7; [2]): 24.2 ± 1.4%; percentage of EdU-negative (MCF7; [3]): 24.7 ± 0.13%; percentage of EdU-negative (hTERT-HMEC; [2]): 4.71 ± 0.63%; percentage of EdU-negative (hTERT-HMEC; [3]): 6.64 ± 0.96%
MSMLVVFLLLWGVTWGPVTEAAIFYETQPSLWAESESLLKPLANVTLTCQAHLETPDFQLFKNGVAQEPVHLDSPAIKHQFLLTGDTQGRYRCRSGLSTGWTQLSKLLELTGPKSLPAPWLSMAPVSWITPGLKTTAVCRGVLRGVTFLLRREGDHEFLEVPEAQEDVEATFPVHQPGNYSCSYRTDGEGALSEPSATVTIEELAAPPPPVLMHHGESSQVLHPGNKVTLTCVAPLSGVDFQLRRGEKELLVPRSSTSPDRIFFHLNAVALGDGGHYTCRYRLHDNQNGWSGDSAPVELILSDETLPAPEFSPEPESGRALRLRCLAPLEGARFALVREDRGGRRVHRFQSPAGTEALFELHNISVADSANYSCVYVDLKPPFGGSAPSERLELHVDGPPPRPQLRATWSGAVLAGRDAVLRCEGPIPDVTFELLREGETKAVKTVRTPGAAANLELIFVGPQHAGNYRCRYRSWVPHTFESELSDPVELLVAES					percentage of EdU-negative (MCF7; [4]): 24.5 ± 4.7%; percentage of EdU-negative (MCF7; [5]): 27.1 ± 2.2%; percentage of EdU-negative (hTERT-HMEC; [4]): 5.27 ± 0.37%; percentage of EdU-negative (hTERT-HMEC; [5]): 10.2 ± 0.85%
MSMSPTVIILACLGFFLDQSVWAHVGGQDKPFCSAWPSAVVPQGGHVTLRCHYRRGFNIFTLYKKDGVPVPELYNRIFWNSFLISPVTPAHAGTYRCRGFHPHSPTEWSAPSNPLVIMVTGLYEKPSLTARPGPTVRAGENVTLSCSSQSSFDIYHLSREGEAHELRLPAVPSINGTFQADFPLGPATHGETYRCFGSFHGSPYEWSDPSDPLPVSVTGNPSSSWPSPTEPSFKTGIARHLHAVIRYSVAIILFTILPFFLLHRWCSKKKDAAVMNQEPAGHRTVNREDSDEQDPQEVTYAQLDHCIFTQRKITGPSQRSKRPSTDTSVCIELPNAEPRALSPAHEHHSQALMGSSRETTALSQTQLASSNVPAAGI	24.4 ± 3.2	25.68 ± 0.13	5.29 ± 1.2	4.83 ± 0.51	
MSNTQAERSIIGMIDMFHKYTRRDDKIEKPSLLTMMKENFPNFLSACDKKGTNYLADVFEKKDKNEDKKIDFSEFLSLLGDIATDYHKQSHGAAPCSGGSQ	23.5 ± 2.3	26.5 ± 2.3	5.43 ± 0.67	5.53 ± 0.45	
MSPHLTALLGLVLCLAQTIHTQEGALPRPSISAEPGTVISPGSHVTFMCRGPVGVQTFRLEREDRAKYKDSYNVFRLGPSESEARFHIDSVSEGNAGLYRCLYYKPPGWSEHSDFLELLVKESSGGPDSPDTEPGSSAGTVPGTEASGFDAP [Q6ISS4]	24.7 ± 0.63	27.9 ± 3.5	4.81 ± 0.34	6.43 ± 0.35	
MSPHPTALLGLVLCLAQTIHTQEEDLPRPSISAEPGTVIPLGSHVTFVCRGPVGVQTFRLERDSRSTYNDTEDVSQASPSESEARFRIDSVREGNAGLYRCIYYKPPKWSEQSDYLELLVKESSGGPDSPDTEPGSSAGPTQRPSDNSHNEHAPASQGLKAEHLYILIGVSVVFLFCLLLLVLFCLHRQNQIKQGPPRSKDEEQKPQQRPDLAVDVLERTADKATVNGLPEKDRETDTSALAAGSSQEVTYAQLDHWALTQRTARAVSPQSTKPMAESITYAAVARH [Q6GTX8]	23.2 ± 1.6	24.29 ± 0.027	5.38 ± 0.85	5.62 ± 0.45	

From the supplement of paper PMC11316812
